Self-cleavage data for 32 variants are collected here from the RNAGym collection of RNA variant scans (doi:10.7554/elife.80360).

The chains are these.
B1: HDV Ribozyme (parent)
chain: GGCCGGCAUGGUCCCAGCCUCCUCGCUGGCGCCGGCUGGGCAACAUUCCGAGGGGACCGUCCCCUCGGUAAUGGCGAAUGGGACCCA

Variants of B1 are the subject of this series. Put plainly: self-cleavage, relative activity (ratio to wild type); higher = more cleavage; co-transcriptional.
Consider GGCCGGCAUGGUCCCAGCCUCCUCGCUGGCGCCGGCUGGGCAACAUUCCGAGGGAACCGUCCCCUCGGUAAUGGCGACUGGGACCCA [G55A A78C], for which the self-cleavage worked out at 0.0639.

On to GGCCGGCAUGGUCCCAGCCUCCUCGCUGGCGCCGGCUGGGCAACAUUCCGAGGGAACCGUCCCCGCGGUAAUGGCGAAUGGGACCCA [G55A U65G], for which the self-cleavage is 1.09.

With GGCCGGCAUGGUCCCAGCCUCCUCGCUGGCGCCGGCUGGGCAACAUUCCGAGGGAACCGUCCCCUCGGUAAAGGCGAAUGGGACCCA [G55A U72A], the self-cleavage was determined as 0.917.

Turning to GGCCGGCAUGGUCCCAGCCUCCUCGCUGGCGCCGGCUGGGCAACAUUCCGAGGGAACCGUCCCCUCGGUAAUGGCGAAUGGGUCCCA [G55A A83U], the self-cleavage was determined as 0.415.

Take GGCCGGCAUGGUCCCAGCCUCCUCGCUGGCGCCGGCUGGGCAACAUUCCGAGGUGACCGACCCCUCGGUAAUGGCGAAUGGGACCCA [G54U U60A]: the self-cleavage is 0.946.

Consider GGCCGGCAUGGUCCCAGCCUCCUCGCUGGCGCCGGCUGGGCAACAUUCCGAGGUGACCGCCCCCUCGGUAAUGGCGAAUGGGACCCA [G54U U60C], for which the self-cleavage was 1.

Consider GGCCGGCAUGGUCCCAGCCUCCUCGCUGGCGCCGGCUGGGCAACAUUCCGAGGGAACCGUCCCCUCGGUAAUGGCGAAUGGGACGCA [G55A C85G], for which the self-cleavage was 0.962.

As to GGCCGGCAUGGUCCCAGCCUCCUCGCUGGCGCCGGCUGGGCAACAUUCCGAGGUGACCGUCCCCUCGGUAAUGUCGAAUGGGACCCA [G54U G74U], the self-cleavage was determined as 0.421.

With GGCCGGCAUGGUCCCAGCCUCCUCGCUGGCGCCGGCUGGGCAACAUUCCGAGGUGACCGUCCCCUCGGUAAUGGCCAAUGGGACCCA [G54U G76C], the self-cleavage is 0.73.

On to GGCCGGCAUGGUCCCAGCCUCCUCGCUGGCGCCGGCUGGGCAACAUUCCGAGGUGACCGUCCCCUCGGUAAUGGCUAAUGGGACCCA [G54U G76U], for which the self-cleavage was found to be 1.09.

As to GGCCGGCAUGGUCCCAGCCUCCUCGCUGGCGCCGGCUGGGCAACAUUCCGAGGUGACCGUCCCCUCGGUAAUGGCAAAUGGGACCCA [G54U G76A], the self-cleavage worked out at 0.981.

On to GGCCGGCAUGGUCCCAGCCUCCUCGCUGGCGCCGGCUGGGCAACAUUCCGAGGGAACCGUCCCCUCGGUAAUGGCGAAUCGGACCCA [G55A G80C], for which the self-cleavage was found to be 0.138.

Consider GGCCGGCAUGGUCCCAGCCUCCUCGCUGGCGCCGGCUGGGCAACAUUCCGAGGGAACCGUCCCCUCGGUAAUGGCGAAUAGGACCCA [G55A G80A], for which the self-cleavage turned out to be 0.369.

For the variant GGCCGGCAUGGUCCCAGCCUCCUCGCUGGCGCCGGCUGGGCAACAUUCCGAGGGAACCGUCCCCUCGGUAAUGGCGAAUGGGACCAA [G55A C86A], the self-cleavage came to 0.978.

For the variant GGCCGGCAUGGUCCCAGCCUCCUCGCUGGCGCCGGCUGGGCAACAUUCCGAGGGAACCGUCCCCUCGGUAAUGGCGAAUGGGACCGA [G55A C86G], the self-cleavage was determined as 0.818.

On to GGCCGGCAUGGUCCCAGCCUCCUCGCUGGCGCCGGCUGGGCAACAUUCCGAGGGAACCGUCCCCUCGUUAAUGGCGAAUGGGACCCA [G55A G68U], for which the self-cleavage turned out to be 0.965.

For the variant GGCCGGCAUGGUCCCAGCCUCCUCGCUGGCGCCGGCUGGGCAACAUUCCGAGGGAACCAUCCCCUCGGUAAUGGCGAAUGGGACCCA [G55A G59A], the self-cleavage was found to be 1.13.

With GGCCGGCAUGGUCCCAGCCUCCUCGCUGGCGCCGGCUGGGCAACAUUCCGAGGGAACCUUCCCCUCGGUAAUGGCGAAUGGGACCCA [G55A G59U], the self-cleavage turned out to be 0.973.

As for GGCCGGCAUGGUCCCAGCCUCCUCGCUGGCGCCGGCUGGGCAACAUUCCGAGGGAACCGGCCCCUCGGUAAUGGCGAAUGGGACCCA [G55A U60G], the self-cleavage came to 0.798.

As to GGCCGGCAUGGUCCCAGCCUCCUCGCUGGCGCCGGCUGGGCAACAUUCCGAGGGAACCGACCCCUCGGUAAUGGCGAAUGGGACCCA [G55A U60A], the self-cleavage is 0.99.

On to GGCCGGCAUGGUCCCAGCCUCCUCGCUGGCGCCGGCUGGGCAACAUUCCGAGGGAACCGUCCCCUCGGGAAUGGCGAAUGGGACCCA [G55A U69G], for which the self-cleavage was 0.942.

Take GGCCGGCAUGGUCCCAGCCUCCUCGCUGGCGCCGGCUGGGCAACAUUCCGAGGGAACCGUCCCCUCGGCAAUGGCGAAUGGGACCCA [G55A U69C]: the self-cleavage came to 0.918.

As for GGCCGGCAUGGUCCCAGCCUCCUCGCUGGCGCCGGCUGGGCAACAUUCCGAGGGAACCGUCCCCUCGGUAAUGGCGAAUGGGAACCA [G55A C84A], the self-cleavage worked out at 0.992.

Consider GGCCGGCAUGGUCCCAGCCUCCUCGCUGGCGCCGGCUGGGCAACAUUCCGAGGGAACCGUCCCCUCGGUAAUGGCGAAUGGGAGCCA [G55A C84G], for which the self-cleavage is 0.635.

On to GGCCGGCAUGGUCCCAGCCUCCUCGCUGGCGCCGGCUGGGCAACAUUCCGAGGGAACCGUCCCCUCGGUAAUAGCGAAUGGGACCCA [G55A G73A], for which the self-cleavage is 0.812.

Take GGCCGGCAUGGUCCCAGCCUCCUCGCUGGCGCCGGCUGGGCAACAUUCCGAGGUGACCGUCCCCUCGGUAAUGGCGAAUGGCACCCA [G54U G82C]: the self-cleavage turned out to be 0.237.

As to GGCCGGCAUGGUCCCAGCCUCCUCGCUGGCGCCGGCUGGGCAACAUUCCGAGGUGACCGUCCCCUCGGUAAUGGCGAAUGGUACCCA [G54U G82U], the self-cleavage was 0.432.

Turning to GGCCGGCAUGGUCCCAGCCUCCUCGCUGGCGCCGGCUGGGCAACAUUCCGAGGGAACCGUCCCCUCGGUAAUGGCGGAUGGGACCCA [G55A A77G], the self-cleavage is 0.991.

GGCCGGCAUGGUCCCAGCCUCCUCGCUGGCGCCGGCUGGGCAACAUUCCGAGGGAACCGUCCCCUCGGUAAUGGCGUAUGGGACCCA [G55A A77U]: the self-cleavage came out at 0.694.

GGCCGGCAUGGUCCCAGCCUCCUCGCUGGCGCCGGCUGGGCAACAUUCCGAGGUGACCGUCCCCUCGGUAAUGGCGAAUGUGACCCA [G54U G81U]: the self-cleavage came to 0.349.

As to GGCCGGCAUGGUCCCAGCCUCCUCGCUGGCGCCGGCUGGGCAACAUUCCGAGGUGACCGUCCCCUCGGUAAUGGCGAAUGAGACCCA [G54U G81A], the self-cleavage worked out at 0.306.

Regarding GGCCGGCAUGGUCCCAGCCUCCUCGCUGGCGCCGGCUGGGCAACAUUCCGAGGUGACCGUCCCCUCGGUAAUGGCGAAUGCGACCCA [G54U G81C], the self-cleavage was 0.299.
